Biological target: gp130/OSMRβ receptor complex (type II OSM receptor) on NHEK (human) (UniProt P40189)
Assay: cell-based or functional assay

gp130/OSMRβ receptor complex (type II OSM receptor) on NHEK (human), sequence (P40189 23-918, chain 1 of 2): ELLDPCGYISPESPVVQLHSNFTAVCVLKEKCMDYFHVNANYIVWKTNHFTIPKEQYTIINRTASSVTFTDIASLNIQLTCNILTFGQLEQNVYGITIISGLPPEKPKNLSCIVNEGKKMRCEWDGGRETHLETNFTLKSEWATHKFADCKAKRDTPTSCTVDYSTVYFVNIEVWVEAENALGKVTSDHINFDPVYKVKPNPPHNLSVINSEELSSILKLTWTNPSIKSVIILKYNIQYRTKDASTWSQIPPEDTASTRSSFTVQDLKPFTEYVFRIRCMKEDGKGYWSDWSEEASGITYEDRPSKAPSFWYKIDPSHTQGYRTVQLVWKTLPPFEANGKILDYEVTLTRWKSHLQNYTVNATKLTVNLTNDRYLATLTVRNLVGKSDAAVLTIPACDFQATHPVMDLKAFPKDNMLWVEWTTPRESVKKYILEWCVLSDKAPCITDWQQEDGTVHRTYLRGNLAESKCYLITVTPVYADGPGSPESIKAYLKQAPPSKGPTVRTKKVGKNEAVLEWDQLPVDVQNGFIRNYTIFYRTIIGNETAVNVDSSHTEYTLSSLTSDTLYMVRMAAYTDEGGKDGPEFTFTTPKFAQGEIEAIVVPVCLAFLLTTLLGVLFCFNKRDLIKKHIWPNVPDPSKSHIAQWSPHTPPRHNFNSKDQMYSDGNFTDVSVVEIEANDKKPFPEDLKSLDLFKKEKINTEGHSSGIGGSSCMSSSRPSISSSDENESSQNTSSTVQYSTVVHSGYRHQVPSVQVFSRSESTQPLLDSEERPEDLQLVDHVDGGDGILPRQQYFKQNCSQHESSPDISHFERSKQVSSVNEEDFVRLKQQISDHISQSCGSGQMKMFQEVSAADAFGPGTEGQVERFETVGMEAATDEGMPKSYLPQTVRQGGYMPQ
gp130/OSMRβ receptor complex (type II OSM receptor) on NHEK (human), sequence (Q99650 28-979, chain 2 of 2, further chain): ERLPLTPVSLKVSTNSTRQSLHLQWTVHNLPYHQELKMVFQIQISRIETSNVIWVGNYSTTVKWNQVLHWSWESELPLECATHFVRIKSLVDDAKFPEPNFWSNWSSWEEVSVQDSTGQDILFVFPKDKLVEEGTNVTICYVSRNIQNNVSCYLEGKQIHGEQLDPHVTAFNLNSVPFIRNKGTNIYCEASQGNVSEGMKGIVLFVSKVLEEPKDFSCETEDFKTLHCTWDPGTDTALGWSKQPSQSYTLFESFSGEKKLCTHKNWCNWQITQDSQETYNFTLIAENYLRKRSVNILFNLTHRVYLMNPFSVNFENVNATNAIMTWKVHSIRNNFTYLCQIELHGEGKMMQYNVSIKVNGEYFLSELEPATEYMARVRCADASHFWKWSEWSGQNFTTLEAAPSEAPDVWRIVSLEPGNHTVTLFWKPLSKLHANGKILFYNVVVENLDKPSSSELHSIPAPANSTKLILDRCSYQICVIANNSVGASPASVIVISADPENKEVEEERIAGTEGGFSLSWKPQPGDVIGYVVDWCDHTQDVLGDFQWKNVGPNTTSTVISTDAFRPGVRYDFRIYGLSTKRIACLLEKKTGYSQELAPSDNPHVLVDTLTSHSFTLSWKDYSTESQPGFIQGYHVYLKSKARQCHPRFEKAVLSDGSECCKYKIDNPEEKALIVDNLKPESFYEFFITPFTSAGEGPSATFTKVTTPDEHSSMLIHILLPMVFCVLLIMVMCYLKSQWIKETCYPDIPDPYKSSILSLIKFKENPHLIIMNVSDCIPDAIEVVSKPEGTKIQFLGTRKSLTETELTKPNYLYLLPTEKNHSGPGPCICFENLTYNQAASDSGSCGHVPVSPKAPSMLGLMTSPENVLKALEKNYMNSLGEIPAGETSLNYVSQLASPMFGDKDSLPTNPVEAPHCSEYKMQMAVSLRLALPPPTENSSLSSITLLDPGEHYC

## Human recombinant oncostatin M (OSM) (from UniProt P13725 26-221) (ligand)
  tyrosine phosphorylation of STAT3 in NHEK (Western blot): 3 ng/mL
